# Patent US20140087995A1 (published 2014)
# Numbered stars: 1 amine (or outer) side, 2 acyl side, 3 side chain; on linkers, the order of the positions; unused ones are H or OH. Bridge positions count the residues as written; N and C are the ends. Side chains are listed from the residue outwards. Ends that are not written are not given here. * marks the point of attachment. C20 diacid = O=C(O)CCCCCCCCCCCCCCCCCCC(=O)*; γGlu = O=C(O)[C@H](CCC(=O)[*:2])N[*:1]
# T1: human amylin receptor (amylin 3(a) receptor: human calcitonin receptor co-expressed with RAMP-3) (human, UniProt P30988 25-474; O60896 24-148, limits assumed)
# T1 sequence (looked up) 1: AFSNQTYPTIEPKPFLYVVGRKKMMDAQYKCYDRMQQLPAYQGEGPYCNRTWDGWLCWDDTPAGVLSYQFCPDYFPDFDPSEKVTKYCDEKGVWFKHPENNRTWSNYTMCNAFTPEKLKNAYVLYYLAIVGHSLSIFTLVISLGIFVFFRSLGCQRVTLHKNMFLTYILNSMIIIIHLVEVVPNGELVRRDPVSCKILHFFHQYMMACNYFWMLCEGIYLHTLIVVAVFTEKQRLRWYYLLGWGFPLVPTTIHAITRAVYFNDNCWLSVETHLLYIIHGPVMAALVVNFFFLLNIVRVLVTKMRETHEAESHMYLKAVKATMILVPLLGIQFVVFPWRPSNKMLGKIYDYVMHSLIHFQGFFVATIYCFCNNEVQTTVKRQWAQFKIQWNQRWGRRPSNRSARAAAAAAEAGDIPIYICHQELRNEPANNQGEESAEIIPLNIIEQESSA
# T1 sequence (looked up) 2: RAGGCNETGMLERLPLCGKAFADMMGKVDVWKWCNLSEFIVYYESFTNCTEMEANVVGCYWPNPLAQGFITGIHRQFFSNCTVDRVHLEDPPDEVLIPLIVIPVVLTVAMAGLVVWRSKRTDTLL
# T2: human calcitonin receptor (human, UniProt P30988 25-474)
# T2 sequence (looked up): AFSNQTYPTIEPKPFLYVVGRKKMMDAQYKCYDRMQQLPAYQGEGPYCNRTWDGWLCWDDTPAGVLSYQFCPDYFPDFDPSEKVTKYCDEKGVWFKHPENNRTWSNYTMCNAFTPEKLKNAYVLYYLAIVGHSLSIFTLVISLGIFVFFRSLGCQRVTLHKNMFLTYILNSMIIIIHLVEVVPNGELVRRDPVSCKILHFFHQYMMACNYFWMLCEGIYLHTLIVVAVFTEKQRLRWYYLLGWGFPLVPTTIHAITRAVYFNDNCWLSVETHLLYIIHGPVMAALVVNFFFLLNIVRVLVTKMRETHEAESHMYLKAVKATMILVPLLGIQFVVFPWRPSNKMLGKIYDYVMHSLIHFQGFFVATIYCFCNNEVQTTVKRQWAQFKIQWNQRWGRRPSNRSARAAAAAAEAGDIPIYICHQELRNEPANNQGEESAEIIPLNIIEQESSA
# What was measured:
# [1] = target: T1, human amylin receptor (amylin 3(a) …); experiment: cell-based or functional assay
# [2] = target: T2, human calcitonin receptor; experiment: cell-based or functional assay
Binder,hAmylin-R funct. EC50 [1],hCTR funct. EC50 [2],Ratio hCT/hAmylin funct. [1]
"K([γGlu-C20 diacid])CNTATCATQRLAHFLRHSSPNFGAIPSSTPVGSNTY-NH2 (disulfide 2-7; N-terminus assumed; SMILES CC[C@H](C)[C@H](NC(=O)[C@H](C)NC(=O)CNC(=O)[C@H](Cc1ccccc1)NC(=O)[C@H](CC(N)=O)NC(=O)[C@@H]1CCCN1C(=O)[C@H](CO)NC(=O)[C@H](CO)NC(=O)[C@H](Cc1c[nH]cn1)NC(=O)[C@H](CCCNC(=N)N)NC(=O)[C@H](CC(C)C)NC(=O)[C@H](Cc1ccccc1)NC(=O)[C@H](Cc1c[nH]cn1)NC(=O)[C@H](C)NC(=O)[C@H](CC(C)C)NC(=O)[C@H](CCCNC(=N)N)NC(=O)[C@H](CCC(N)=O)NC(=O)[C@@H](NC(=O)[C@H](C)NC(=O)[C@@H]1CSSC[C@H](NC(=O)[C@@H](N)CCCCNC(=O)CC[C@H](NC(=O)CCCCCCCCCCCCCCCCCCC(=O)O)C(=O)O)C(=O)N[C@@H](CC(N)=O)C(=O)N[C@@H]([C@@H](C)O)C(=O)N[C@@H](C)C(=O)N[C@@H]([C@@H](C)O)C(=O)N1)[C@@H](C)O)C(=O)N1CCC[C@H]1C(=O)N[C@@H](CO)C(=O)N[C@@H](CO)C(=O)N[C@H](C(=O)N1CCC[C@H]1C(=O)N[C@H](C(=O)NCC(=O)N[C@@H](CO)C(=O)N[C@@H](CC(N)=O)C(=O)N[C@H](C(=O)N[C@@H](Cc1ccc(O)cc1)C(N)=O)[C@@H](C)O)C(C)C)[C@@H](C)O, also called compound 62)",0.044 nM,0.539 nM,
"K([γGlu-γGlu-C20 diacid])CNTATCATQRLAEFLRHSSPNFGAIPSSTNVGRNTY-NH2 (disulfide 2-7; N-terminus assumed; SMILES CC[C@H](C)[C@H](NC(=O)[C@H](C)NC(=O)CNC(=O)[C@H](Cc1ccccc1)NC(=O)[C@H](CC(N)=O)NC(=O)[C@@H]1CCCN1C(=O)[C@H](CO)NC(=O)[C@H](CO)NC(=O)[C@H](Cc1c[nH]cn1)NC(=O)[C@H](CCCNC(=N)N)NC(=O)[C@H](CC(C)C)NC(=O)[C@H](Cc1ccccc1)NC(=O)[C@H](CCC(=O)O)NC(=O)[C@H](C)NC(=O)[C@H](CC(C)C)NC(=O)[C@H](CCCNC(=N)N)NC(=O)[C@H](CCC(N)=O)NC(=O)[C@@H](NC(=O)[C@H](C)NC(=O)[C@@H]1CSSC[C@H](NC(=O)[C@@H](N)CCCCNC(=O)CC[C@H](NC(=O)CC[C@H](NC(=O)CCCCCCCCCCCCCCCCCCC(=O)O)C(=O)O)C(=O)O)C(=O)N[C@@H](CC(N)=O)C(=O)N[C@@H]([C@@H](C)O)C(=O)N[C@@H](C)C(=O)N[C@@H]([C@@H](C)O)C(=O)N1)[C@@H](C)O)C(=O)N1CCC[C@H]1C(=O)N[C@@H](CO)C(=O)N[C@@H](CO)C(=O)N[C@H](C(=O)N[C@@H](CC(N)=O)C(=O)N[C@H](C(=O)NCC(=O)N[C@@H](CCCNC(=N)N)C(=O)N[C@@H](CC(N)=O)C(=O)N[C@H](C(=O)N[C@@H](Cc1ccc(O)cc1)C(N)=O)[C@@H](C)O)C(C)C)[C@@H](C)O, also called compound 88)",0.773 nM,6.55 nM,8.5
"K([γGlu-γGlu-C20 diacid])CNTATCATQRLANFLRHSSPNFGAIPSSTNVGHNTY-NH2 (disulfide 2-7; N-terminus assumed; SMILES CC[C@H](C)[C@H](NC(=O)[C@H](C)NC(=O)CNC(=O)[C@H](Cc1ccccc1)NC(=O)[C@H](CC(N)=O)NC(=O)[C@@H]1CCCN1C(=O)[C@H](CO)NC(=O)[C@H](CO)NC(=O)[C@H](Cc1c[nH]cn1)NC(=O)[C@H](CCCNC(=N)N)NC(=O)[C@H](CC(C)C)NC(=O)[C@H](Cc1ccccc1)NC(=O)[C@H](CC(N)=O)NC(=O)[C@H](C)NC(=O)[C@H](CC(C)C)NC(=O)[C@H](CCCNC(=N)N)NC(=O)[C@H](CCC(N)=O)NC(=O)[C@@H](NC(=O)[C@H](C)NC(=O)[C@@H]1CSSC[C@H](NC(=O)[C@@H](N)CCCCNC(=O)CC[C@H](NC(=O)CC[C@H](NC(=O)CCCCCCCCCCCCCCCCCCC(=O)O)C(=O)O)C(=O)O)C(=O)N[C@@H](CC(N)=O)C(=O)N[C@@H]([C@@H](C)O)C(=O)N[C@@H](C)C(=O)N[C@@H]([C@@H](C)O)C(=O)N1)[C@@H](C)O)C(=O)N1CCC[C@H]1C(=O)N[C@@H](CO)C(=O)N[C@@H](CO)C(=O)N[C@H](C(=O)N[C@@H](CC(N)=O)C(=O)N[C@H](C(=O)NCC(=O)N[C@@H](Cc1c[nH]cn1)C(=O)N[C@@H](CC(N)=O)C(=O)N[C@H](C(=O)N[C@@H](Cc1ccc(O)cc1)C(N)=O)[C@@H](C)O)C(C)C)[C@@H](C)O, also called compound 86)",0.298 nM,19.2 nM,64.4
"K([γGlu-γGlu-C20 diacid])CNTATCATQRLAEFLRHSSPNFGAIPSSTNVGSRTY-NH2 (disulfide 2-7; N-terminus assumed; SMILES CC[C@H](C)[C@H](NC(=O)[C@H](C)NC(=O)CNC(=O)[C@H](Cc1ccccc1)NC(=O)[C@H](CC(N)=O)NC(=O)[C@@H]1CCCN1C(=O)[C@H](CO)NC(=O)[C@H](CO)NC(=O)[C@H](Cc1c[nH]cn1)NC(=O)[C@H](CCCNC(=N)N)NC(=O)[C@H](CC(C)C)NC(=O)[C@H](Cc1ccccc1)NC(=O)[C@H](CCC(=O)O)NC(=O)[C@H](C)NC(=O)[C@H](CC(C)C)NC(=O)[C@H](CCCNC(=N)N)NC(=O)[C@H](CCC(N)=O)NC(=O)[C@@H](NC(=O)[C@H](C)NC(=O)[C@@H]1CSSC[C@H](NC(=O)[C@@H](N)CCCCNC(=O)CC[C@H](NC(=O)CC[C@H](NC(=O)CCCCCCCCCCCCCCCCCCC(=O)O)C(=O)O)C(=O)O)C(=O)N[C@@H](CC(N)=O)C(=O)N[C@@H]([C@@H](C)O)C(=O)N[C@@H](C)C(=O)N[C@@H]([C@@H](C)O)C(=O)N1)[C@@H](C)O)C(=O)N1CCC[C@H]1C(=O)N[C@@H](CO)C(=O)N[C@@H](CO)C(=O)N[C@H](C(=O)N[C@@H](CC(N)=O)C(=O)N[C@H](C(=O)NCC(=O)N[C@@H](CO)C(=O)N[C@@H](CCCNC(=N)N)C(=O)N[C@H](C(=O)N[C@@H](Cc1ccc(O)cc1)C(N)=O)[C@@H](C)O)C(C)C)[C@@H](C)O, also called compound 89)",0.404 nM,11.2 nM,27.8
"KCNTATCATQRLADFLRHSSK([γGlu-γGlu-C20 diacid])NFGAIPSSTNVGSDTY-NH2 (disulfide 2-7; N-terminus assumed; SMILES CC[C@H](C)[C@H](NC(=O)[C@H](C)NC(=O)CNC(=O)[C@H](Cc1ccccc1)NC(=O)[C@H](CC(N)=O)NC(=O)[C@H](CCCCNC(=O)CC[C@H](NC(=O)CC[C@H](NC(=O)CCCCCCCCCCCCCCCCCCC(=O)O)C(=O)O)C(=O)O)NC(=O)[C@H](CO)NC(=O)[C@H](CO)NC(=O)[C@H](Cc1c[nH]cn1)NC(=O)[C@H](CCCNC(=N)N)NC(=O)[C@H](CC(C)C)NC(=O)[C@H](Cc1ccccc1)NC(=O)[C@H](CC(=O)O)NC(=O)[C@H](C)NC(=O)[C@H](CC(C)C)NC(=O)[C@H](CCCNC(=N)N)NC(=O)[C@H](CCC(N)=O)NC(=O)[C@@H](NC(=O)[C@H](C)NC(=O)[C@@H]1CSSC[C@H](NC(=O)[C@@H](N)CCCCN)C(=O)N[C@@H](CC(N)=O)C(=O)N[C@@H]([C@@H](C)O)C(=O)N[C@@H](C)C(=O)N[C@@H]([C@@H](C)O)C(=O)N1)[C@@H](C)O)C(=O)N1CCC[C@H]1C(=O)N[C@@H](CO)C(=O)N[C@@H](CO)C(=O)N[C@H](C(=O)N[C@@H](CC(N)=O)C(=O)N[C@H](C(=O)NCC(=O)N[C@@H](CO)C(=O)N[C@@H](CC(=O)O)C(=O)N[C@H](C(=O)N[C@@H](Cc1ccc(O)cc1)C(N)=O)[C@@H](C)O)C(C)C)[C@@H](C)O, also called compound 59)",0.389 nM,1.95 nM,
